Laboratory results as given in the supplement of paper PMC9732359.
± gives the uncertainty stated by the source.

Assay: protein stability index of a GFP-peptide fusion (yeast GPS) (PSI 1-4); higher = more stable; sorted into four equal gates, so the index is relative within each strain
Method in brief: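 The protein stability index combines read frequencies across sorting gates, each weighted by its gate number and then summed. To obtain those frequencies, a pooled yeast library of GFP fusions to tiled 17-residue yeast protein peptides, on a plasmid also expressing Cherry, was grown to mid-log phase in leucine-free medium. The cells were sorted into four equal gates by GFP/Cherry ratio before plasmid amplification by PCR and Illumina sequencing.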

Row | Sequence | protein stability index (doa10∆) | protein stability index (pdr5∆) | protein stability index (san1∆) | protein stability index (ubr1∆)
1 | GKGTGKTAMAELALLNH [BRR2] | 3.19 ± 0.11 | 3.51 ± 0.15 | 3.45 ± 0.099 | 3.22 ± 0.082
2 | FAALSDSYGQGSMTKTW [SSN2] | 3.17 ± 0.094 | 3.34 ± 0.088 | 3.23 ± 0.1 | 3.2 ± 0.063
3 | IKQTSDESTIKRIKPNT [ECM29] | 3 ± 0.073 | 3 ± 0.068 | 2.85 ± 0.048 | 2.94 ± 0.059
4 | FDDLEVEELPTFHDYDM [RRP42] | 2.6 ± 0.069 | 2.63 ± 0.064 | 2.79 ± 0.043 | 2.88 ± 0.043
5 | NRAEGPEELARILQQLK [RGR1] | 3.21 ± 0.11 | 3.17 ± 0.19 | 3.19 ± 0.12 | 3.62 ± 0.097
6 | HQSLGPDGLGEVGMKVQ [RET1] | 2.7 ± 0.16 |  |  | 
7 | VTLYWNNAKLLTFMTCN [ESC2] | 1.89 ± 0.041 | 2.09 ± 0.041 | 2.34 ± 0.045 | 2.57 ± 0.029
8 | INVVIKASRKSVGLPSK [ECM29] | 1.27 ± 0.089 | 1.7 ± 0.074 | 1.95 ± 0.24 | 1.26 ± 0.13
9 | SFVLNKNTIDFERFPSP [RPN4] | 2.4 ± 0.059 | 2.66 ± 0.058 | 2.84 ± 0.057 | 2.88 ± 0.052
10 | SLAPEADLDSLIIRNDS [RPT3] | 2.92 ± 0.11 | 3.01 ± 0.08 | 2.77 ± 0.055 | 2.82 ± 0.071
11 | SVKDYRPAEETEAQAEP [RPS3] | 2.76 ± 0.065 | 3.07 ± 0.068 | 3.11 ± 0.041 | 2.93 ± 0.043
12 | GCLSVLYQSKGRYMEAL [SRP68] | 2.83 ± 0.13 | 3.04 ± 0.18 | 2.76 ± 0.21 | 
13 | VQPPLDKFPYKKLELPK [SWP82] | 2.79 ± 0.074 | 2.11 ± 0.055 | 2.73 ± 0.061 | 2.93 ± 0.055
14 | PNCLFILKLLNGFMESA [SOH1] | 1.9 ± 0.17 | 1.54 ± 0.12 | 1.68 ± 0.18 | 1.44 ± 0.18
15 | GEGERFTVDKKIAERSL [SKP1] | 3.44 ± 0.12 | 3.38 ± 0.12 | 3.36 ± 0.12 | 3.37 ± 0.24
16 | TNNGNDDNETENPNFWR [GRR1] | 2.74 ± 0.066 | 3.16 ± 0.05 | 2.37 ± 0.053 | 2.75 ± 0.041
17 | IANFSRAGKYELVKSYS [YJR042W/NUP85] | 2.25 ± 0.094 | 2.09 ± 0.074 | 1.28 ± 0.13 | 1.45 ± 0.06
18 | EKPLVVPVKLEEIKTVD [RRP6] | 2.52 ± 0.13 | 2.42 ± 0.07 | 2.76 ± 0.16 | 2.38 ± 0.068
19 | PIYYQKLKHMVLDKMHA [RET1] | 1.58 ± 0.076 | 2.03 ± 0.088 | 1.62 ± 0.094 | 1.77 ± 0.063
20 | AHFWKPVLNLDKLWTLI [RPL28] | 2.22 ± 0.045 | 2.3 ± 0.047 | 2.09 ± 0.071 | 1.65 ± 0.032
21 | PKATSSAGAVFKSSVEM [YOR098C/NUP1] | 2.89 ± 0.12 | 1.86 ± 0.11 | 2.69 ± 0.1 | 2.45 ± 0.047
22 | AKNSIIDSSNLPLQAQQ [SWI1] | 2.73 ± 0.069 | 2.94 ± 0.071 | 2.74 ± 0.099 | 2.78 ± 0.042
23 | IDDKGVLMERKDERGEG [ITC1] | 3 ± 0.21 | 3.5 ± 0.18 | 3 ± 0.15 | 3.02 ± 0.21
24 | DVSIEELLREWLETYSE [IRR1] | 3.38 ± 0.056 | 3.34 ± 0.075 | 3.56 ± 0.067 | 3.33 ± 0.047
25 | GSIAMARVLFDDMVEYE [CYT1] | 3.51 ± 0.18 | 3.33 ± 0.12 | 3.04 ± 0.1 | 3.35 ± 0.097
26 | AHDYNNDQDMFTIVSLV [YML103C/NUP188] | 2.76 ± 0.21 | 3.11 ± 0.16 | 3.23 ± 0.12 | 2.95 ± 0.13
27 | PTAKDVEVIKQLSLDAS [GAL11] | 3.08 ± 0.13 | 2 ± 0.07 | 1.82 ± 0.1 | 2.28 ± 0.073
